Measured values: patent US20160108113A1 (Genentech, published 2016)
Where “and” joins values, the source holds several entries; their conditions need not be identical. Identical values can stand only once. Blank lines part the entries; values can stand above or below the binder they belong to.

What was measured:
[1] = target: T1, synthetic peptide corresponding to amino acid residues 105-123 in human α-synuclein (human); assay: NMR competition, unlabeled peptide added to the Fab-α-synuclein complex
T1 construct: also called unlabeled peptide
T1 peptide: EGAPQEGILEDMPVDPDNE
Description: (§1) NMR was used to identify the binding epitope of anti-α-synuclein monoclonal antibody 13F3 and of anti-α-synuclein monoclonal antibody 1F7 as follows. NMR samples were prepared by adding a solution of ¹³C/¹⁵N labeled recombinant human α-synuclein in PBS […] at a concentration of 1 mg/ml (71 μM) purchased from Giotto Biotech (Sesto Fiorentino (FI), Italy) to a volume of 180 μl into 3 mm NMR tubes. Complex formation of the antibody bound form of α-synuclein was achieved by addition of an 18 mg/ml (120 μM) solution of antibody 13F3 and 17.8 mg/ml (118 μM) of antibody 1F7 in PBS (pH 7.2) in aliquots of 9 μl to the NMR sample. 2D HSQC-TROSY spectra were recorded at increasing concentration of Fab and the proton-amide cross peak intensity monitored in CCPN. (See Vranken et al (2005) Proteins 59:687-696.) All spectra were recorded at calibrated 300 K on a Bruker 600 MHz spectrometer using a 5 mm TXI cryo-probe. The final molar ratio used for data analysis of 1:0.5 α-synuclein:Fab. All data was processed using Topspin 3.1 (Bruker Karlsruhe, Germany) and visualized and analyzed using CCPN. Samples of ¹³C/¹⁵N labeled α-synuclein were measured in PBS (pH 7.2) buffer at 1 mg/ml corresponding to a concentration of 71 μM. […] Signal intensities were evaluated in CCPN. The signal errors were extrapolated in CCPN based on the signal to noise of the recorded data. […]

[2] = target: 13C/15N labeled recombinant human α-synuclein (human, UniProt P37840 1-140); assay: NMR 2D HSQC-TROSY, 1:0.5 α-synuclein:Fab; cutoff for epitope residues was attenuation above 50
Description: as §1

[3] = target: T2, recombinant human α-synuclein (human, UniProt P37840 1-140); assay: SPR Biacore T200, antibody captured on murine IgG capture chip, α-synuclein in solution, steady-state analysis, 25 C, Expt A
Description: (§2) Monovalent affinities of anti-α-synuclein antibodies 13F3 and 1F7 for human α-synuclein were assessed using Surface Plasmon Resonance in a Biacore T200 instrument. These experiments utilized an antibody capture format where the test antibody was immobilized by binding the test antibody to a chip pre-coated with a murine IgG capture reagent and subsequently allowed to bind α-synuclein protein in solution.
(§3) A murine IgG capture chip was prepared using the GE murine IgG capture kit according to the manufacturer's instructions. Briefly, a Series S CM5 sensor chip was activated with a mixture of EDC/NHS before exposure to a solution of capture antibody in a 10 mM sodium acetate (pH 5.0) buffer. Remaining covalent attachment sites were blocked with ethanolamine.
(§4) To assess binding, anti-α-synuclein monoclonal antibody 13F3 and anti-α-synuclein monoclonal antibody 1F7 were captured using a 1 μg/ml solution in running buffer (1×HBSP; 10 mM HEPES, pH 7.4, 150 mM NaCl, 0.05% Tween20) at a flow rate of 10 μl/min. Binding of human α-synuclein in solution was monitored at six different concentrations (a three-fold dilution series spanning concentrations from single-digit nanomolar to greater than 1 μM) and one replicate concentration, at a flow rate of 30 μl/min. […]

[4] = target: T2, recombinant human α-synuclein; assay: SPR Biacore T200, antibody captured on murine IgG capture chip, α-synuclein in solution, steady-state analysis, 25 C, Expt B
Description: as §2, §3, §4

[5] = target: T2, recombinant human α-synuclein; assay: SPR Biacore T200, antibody capture format, steady-state analysis (text summary of Table 2)
Description: as §2, §3, §4

[6] = target: T3, peptide corresponding to amino acid residues 37-51 of human α-synuclein (human); assay: peptide mapping with a series of 15-mer peptides
T3 construct: One of a series of 15-mer peptides spanning the length of human α-synuclein; also called 15-mer peptide
T3 peptide: VLYVGSKTKEGVVHG

binding result [1]: binds
NMR signal attenuation at isoleucine 112 [2]: 1.79 fold
B1: anti-α-synuclein monoclonal antibody 13F3 Fab (Fab, V domains shown)
VH: QVQLQQSGAELVKPGASVKMSCKASGYTFTSYWITWVKKRPGQGLEWIGDISPGSGSTHYNEKFKSKATLTVDTSSSTAYIQLFSLTSEDSAVYYCAIAQTTFAYWGQGTLVTVSA
VL: DVLMTQTPLSLPVSLGDQASISCRSSQSIVHSNGNTYLEWYLQKPGQSPKLLIYKVSNRFSGVPDRFSGSGSGTDFTLKISRVEAEDLGVYYCFQGSHVPPTFGGGTRLEIK
notes: also called 13F3 Fab fragment

Kd [3]: 410 nM and 490 nM
Kd [4]: 460 nM
Kd [5]: 450 nM and 470 nM
B2: anti-α-synuclein monoclonal antibody 13F3 (mIgG2a) (antibody, V domains shown)
VH: B1 VH
VL: B1 VL
notes: Mouse monoclonal, mIgG2a, expressed recombinantly in 293 cells

Kd [3]: 130 nM
Kd [4]: 160 nM
Kd [5]: 180 nM
binding result [6]: binds
B3: anti-α-synuclein monoclonal antibody 1F7 (mIgG2a) (antibody, V domains shown)
VH: EVQLQQSGAELVKPGASVKLSCTASGFNIKDYYMDWVKQRTEQGLEWIARIDPEDGETKYAPKFQGKATITADTSSNTAYLQLSSLTSEDTAVYYCRVFDYWGQGTTLTVSS
VL: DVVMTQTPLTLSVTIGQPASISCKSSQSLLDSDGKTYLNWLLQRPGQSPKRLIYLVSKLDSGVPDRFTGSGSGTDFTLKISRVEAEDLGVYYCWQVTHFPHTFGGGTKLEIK
notes: as for B2
